# Measurements published in patent publication US20170306005A1 (NASCIENT, published 2017).
# T1: mouse tenascin-C rCd4-His-FBG (rat; mouse, UniProt P05540 207-392, limits assumed)
# T1 construct: domain: domains 3 and 4; C-terminal FBG fusion; biotinylated in the ELISA screen; also called Mu TNC; mouse TNC rCd4-His-FBG; not shown: 6His tag
# T1 sequence (chain (part 1 of 2)): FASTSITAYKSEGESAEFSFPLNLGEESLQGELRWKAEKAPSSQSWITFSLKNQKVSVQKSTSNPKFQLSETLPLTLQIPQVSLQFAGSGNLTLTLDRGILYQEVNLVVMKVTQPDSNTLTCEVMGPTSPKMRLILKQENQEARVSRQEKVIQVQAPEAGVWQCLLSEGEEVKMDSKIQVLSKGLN
# T1 sequence (chain (part 2 of 2)): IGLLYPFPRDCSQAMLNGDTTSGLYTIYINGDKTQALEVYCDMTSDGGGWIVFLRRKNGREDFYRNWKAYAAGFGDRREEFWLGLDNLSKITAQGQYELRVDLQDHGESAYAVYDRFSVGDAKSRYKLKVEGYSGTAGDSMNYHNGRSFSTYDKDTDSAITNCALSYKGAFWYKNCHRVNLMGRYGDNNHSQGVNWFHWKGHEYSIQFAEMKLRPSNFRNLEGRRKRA
# T2: human tenascin-C rCd4-His-FBG (rat; human, UniProt P05540 207-392, limits assumed)
# T2 construct: domain: domains 3 and 4; C-terminal FBG fusion; biotinylated in the ELISA and HTRF screens; also called Hu TNC; human TNC rCd4-His-FBG; not shown: 6His tag
# T2 sequence (chain (part 1 of 2)): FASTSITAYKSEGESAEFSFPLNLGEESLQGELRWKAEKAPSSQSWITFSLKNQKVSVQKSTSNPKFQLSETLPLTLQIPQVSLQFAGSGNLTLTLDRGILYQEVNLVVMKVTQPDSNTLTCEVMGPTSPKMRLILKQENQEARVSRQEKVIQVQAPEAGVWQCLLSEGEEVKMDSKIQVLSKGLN
# T2 sequence (chain (part 2 of 2)): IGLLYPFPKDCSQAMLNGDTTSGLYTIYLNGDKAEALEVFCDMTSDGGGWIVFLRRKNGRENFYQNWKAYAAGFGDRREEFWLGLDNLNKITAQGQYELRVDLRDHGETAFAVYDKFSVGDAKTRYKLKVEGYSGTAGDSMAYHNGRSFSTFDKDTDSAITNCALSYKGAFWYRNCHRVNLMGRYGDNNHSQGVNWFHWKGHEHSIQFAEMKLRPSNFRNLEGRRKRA
# Key:
# [1] = molecular target: T1, mouse tenascin-C rCd4-His-FBG; assay: SPR off-rate screen, captured IgG4 supernatant, 25 C
# Method: (§1) The 31 scFv of interest were sub-cloned into a human IgG4 expression vector for generation of antibodies as human IgG4 with a hinge-stabilising mutation (S241P; Angal et al, 1993). […] Briefly, surface plasmon resonance (SPR) experiments were performed using a BIAcore T100 instrument and followed the protocol according to the Human antibody capture kit protocol (GE, BR-1008-39). For off-rate screening, 10,000 response units (RU) of anti-human Fc IgG (GE, BR-1008-39) was immobilised on flow-cells (FC1 and FC2) of a Series 5 CM5 dextran sensor chip (BR-1005-30) using EDC/NHS cross-linking chemistry according to the amine coupling kit protocol (GE, BR-1000-50). Culture supernatants containing expressed IgG4 were diluted 1:2 with 2×PBS-T and injected into FC2 (flowrate 5 μl/min, 60 s contact time) to enable antibody capture at 25° C. […] A fixed concentration of antigen (15 nM of human and mouse TNC rCd4-His-FBG and 100 nM of human TNR rCd4-His-FBG) was injected with a flow-path via FC 1 (reference flow cell) and FC 2 (antibody capture flow cell), with a flow rate of 30 μl/min, and the association and dissociation phases measured over 1 and 5 min time periods, respectively. Regeneration of the binding surface employed 3M MgCl₂ with 30 s contact time. Off rates were determined by reference cell subtraction and fitting the sensogram experimental data assuming a 1:1 interaction using BIAevaluation software (GE, BR-1005-97).
# [2] = molecular target: T2, human tenascin-C rCd4-His-FBG; assay: as above
# Method: as §1
Binder,koff [1] [s⁻¹],koff [2] [s⁻¹]
"162_02_F4 human IgG4 (antibody, V domains shown, human IgG4 with hinge S241P; also called Antibody 162 02 F4 (derived from 2A5)) VH: EVRLVQSGAEVKKPGASVKVSCKVSGYTLTELSMHWVRQAPGKGLEWMGGFDPEDGETIYAQKFQGRVTMTEDTSTDTAYMELSSLRSEDTAVYYCATAQKETYALTYWGQGTLVTVSS VL: DIQMTQSPASLPTSVGDRVTITCRASQYIQGFLNWYQQKPGKAPRLLIYAASTLQDGVPSRFSGSGYGTDFTLTISSLQPEDFATYYCMHHYRSPWTFGQGTKVEIKR",0.001,5.9e-07
"160_01_H4 human IgG4 (antibody, V domains shown, human IgG4 with hinge S241P; also called Antibody 160 01 H4 (derived from 2A5)) VH: EVRLVQSGAEVKKPGASVKVSCKVSGYTLTELSMHWVRQAPGKGLEWMGGFDPEDGETIYAQKFQGRVTMTEDTSTDTAYMELSSLRSEDTAVYYCATGRFVWEALTYWGQGTLVTVSS VL: DIQMTQSPASLPTSVGDRVTITCRASQYIQGFLNWYQQKPGKAPRLLIYAASTLQDGVPSRFSGSGYGTDFTLTISSLQPEDFATYYCQQSYSTPWTFGQGTKVEIKR",0.0171,1.6e-05
"162_02_C1 human IgG4 (antibody, V domains shown, human IgG4 with hinge S241P; also called Antibody 162 02 C1 (derived from 2A5)) VH: EVRLVQSGAEVKKPGASVKVSCKVSGYTLTELSMHWVRQAPGKGLEWMGGFDPEDGETIYAQKFQGRVTMTEDTSTDTAYMELSSLRSEDTAVYYCATAQKETYALTYWGQGTLVTVSS VL: DIQMTQSPASLPTSVGDRVTITCRASQYIQGFLNWYQQKPGKAPRLLIYAASTLQDGVPSRFSGSGYGTDFTLTISSLQPEDFATYYCLHHYRAPWTFGQGTKVEIKR",0.0016,< 1e-05
"163_02_A12 human IgG4 (antibody, V domains shown, human IgG4 with hinge S241P; also called Antibody 163 02 A12 (derived from 2A5)) VH: EVRLVQSGAEVKKPGASVKVSCKVSGYTLTELSMHWVRQAPGKGLEWMGGFDPEDGETIYAQKFQGRVTMTEDTSTDTAYMELSSLRSEDTAVYYCATAQKETYALTYWGQGTLVTVSS VL: DIQMTQSPASLPTSVGDRVTITCRASQYIQGFLNWYQQKPGKAPRLLIYAASTLQDGVPSRFSGSGYGTDFTLTISSLQPEDFATYYCLHHYREPWTFGQGTKVEIKR",0.00094,3.2e-07
"160_01_D6 human IgG4 (antibody, V domains shown, human IgG4 with hinge S241P; also called Antibody 160 01 D6 (derived from 2A5)) VH: EVRLVQSGAEVKKPGASVKVSCKVSGYTLTELSMHWVRQAPGKGLEWMGGFDPEDGETIYAQKFQGRVTMTEDTSTDTAYMELSSLRSEDTAVYYCATAQADPHLFTYWGQGTLVTVSS VL: DIQMTQSPASLPTSVGDRVTITCRASQYIQGFLNWYQQKPGKAPRLLIYAASTLQDGVPSRFSGSGYGTDFTLTISSLQPEDFATYYCQQSYSTPWTFGQGTKVEIKR",0.0559,1.05e-05
"162_02_C2 human IgG4 (antibody, V domains shown, human IgG4 with hinge S241P; also called Antibody 162 02 C2 (derived from 2A5)) VH: EVRLVQSGAEVKKPGASVKVSCKVSGYTLTELSMHWVRQAPGKGLEWMGGFDPEDGETIYAQKFQGRVTMTEDTSTDTAYMELSSLRSEDTAVYYCATAQKETYALTYWGQGTLVTVSS VL: DIQMTQSPASLPTSVGDRVTITCRASQYIQGFLNWYQQKPGKAPRLLIYAASTLQDGVPSRFSGSGYGTDFTLTISSLQPEDFATYYCMHHYRAPWTFGQGTKVEIKR",0.0017,1.15e-05
"160_01_F1 human IgG4 (antibody, V domains shown, human IgG4 with hinge S241P; also called Antibody 160 01 F1 (derived from 2A5)) VH: EVRLVQSGAEVKKPGASVKVSCKVSGYTLTELSMHWVRQAPGKGLEWMGGFDPEDGETIYAQKFQGRVTMTEDTSTDTAYMELSSLRSEDTAVYYCATAQSPWSGMTYWGQGTLVTVSS VL: DIQMTQSPASLPTSVGDRVTITCRASQYIQGFLNWYQQKPGKAPRLLIYAASTLQDGVPSRFSGSGYGTDFTLTISSLQPEDFATYYCQQSYSTPWTFGQGTKVEIKR",–,4e-06
"161_01_C11 human IgG4 (antibody, V domains shown, human IgG4 with hinge S241P; also called Antibody 161 01 C11 (derived from 2A5)) VH: EVRLVQSGAEVKKPGASVKVSCKVSGYTLTELSMHWVRQAPGKGLEWMGGFDPEDGETIYAQKFQGRVTMTEDTSTDTAYMELSSLRSEDTAVYYCATAQKEWLPDVTWGQGTLVTVSS VL: DIQMTQSPASLPTSVGDRVTITCRASQYIQGFLNWYQQKPGKAPRLLIYAASTLQDGVPSRFSGSGYGTDFTLTISSLQPEDFATYYCQQSYSTPWTFGQGTKVEIKR",–,2.2e-07
"160_01_E3 human IgG4 (antibody, V domains shown, human IgG4 with hinge S241P; also called Antibody 160 01 E3 (derived from 2A5)) VH: EVRLVQSGAEVKKPGASVKVSCKVSGYTLTELSMHWVRQAPGKGLEWMGGFDPEDGETIYAQKFQGRVTMTEDTSTDTAYMELSSLRSEDTAVYYCATQRYVWEALTYWGQGTLVTVSS VL: DIQMTQSPASLPTSVGDRVTITCRASQYIQGFLNWYQQKPGKAPRLLIYAASTLQDGVPSRFSGSGYGTDFTLTISSLQPEDFATYYCQQSYSTPWTFGQGTKVEIKR",0.0559,–

# Continued, values first:
koff [1] [s⁻¹],koff [2] [s⁻¹],Binder
0.00797,0.000872,"165_13_A4 human IgG4 (antibody, V domains shown, human IgG4 with hinge S241P) VH: QVQLVESGGGLVQPGRSLRLSCAASGFTFDDYAMHWVRQAPGKGLEWVSGISGSGGSTYYADSVKGRFTISRDNAKNSLYLQMNSLRAEDTALYYCAKDKYPVLDTFDIWGQGTMVTVSS VL: DIQMTQSPASLPTPVGDRVTITCRASQYIQGFLNWYQQKPGKAPKLLIYDASNLETGVPSRFSGSGSGTDFTLTISSLQPEDFATYYCQQSYSTPQTFGQGTKVDIKR"
0.03,1.4e-06,"165_13_B3 human IgG4 (antibody, V domains shown, human IgG4 with hinge S241P) VH: QVQLVESGGGLVQPGRSLRLSCAASGFTFDDYAMHWVRQAPGKGLEWVSGISGSGGSTYYADSVKGRFTISRDNAKNSLYLQMNSLRAEDTALYYCAKALARGHDTFDIWGQGTMVTVSS VL: DIQMTQSPASLPTPVGDRVTITCRASQYIQGFLNWYQQKPGKAPKLLIYDASNLETGVPSRFSGSGSGTDFTLTISSLQPEDFATYYCQQSYSTPQTFGQGTKVDIKR"
1,2.6e-05,"180_11_F5 human IgG4 (antibody, V domains shown, human IgG4 with hinge S241P; also called Antibody 180 11 F5 (derived from B12)) VH: QVQLVESGGGLVQPGRSLRLSCAASGFTFDDYAMHWVRQAPGKGLEWVSGISGSGGSTYYADSVKGRFTISRDNAKNSLYLQMNSLRAEDTALYYCAKVMRTGLDTFDIWGQGTMVTVSS VL: DIQMTQSPASLPTPVGDRVTITCRASQYIQGFLNWYQQKPGKAPKLLIYDASNLETGVPSRFSGSGSGTDFTLTISSLQPEDFATYYCQQSYSTPQTFGQGTKVDIKR"
0.0577,1.4e-06,"165_13_E1 human IgG4 (antibody, V domains shown, human IgG4 with hinge S241P) VH: QVQLVESGGGLVQPGRSLRLSCAASGFTFDDYAMHWVRQAPGKGLEWVSGISGSGGSTYYADSVKGRFTISRDNAKNSLYLQMNSLRAEDTALYYCAKDISAVMDVPQTWGQGTMVTVSS VL: DIQMTQSPASLPTPVGDRVTITCRASQYIQGFLNWYQQKPGKAPKLLIYDASNLETGVPSRFSGSGSGTDFTLTISSLQPEDFATYYCQQSYSTPQTFGQGTKVDIKR"
0.00098,3.2e-07,"163_02_D11 human IgG4 (antibody, V domains shown, human IgG4 with hinge S241P; also called Antibody 163 02 D11 (derived from 2A5)) VH: EVRLVQSGAEVKKPGASVKVSCKVSGYTLTELSMHWVRQAPGKGLEWMGGFDPEDGETIYAQKFQGRVTMTEDTSTDTAYMELSSLRSEDTAVYYCATAQKETYALTYWGQGTLVTVSS VL: DIQMTQSPASLPTSVGDRVTITCRASQYIQGFLNWYQQKPGKAPRLLIYAASTLQDGVPSRFSGSGYGTDFTLTISSLQPEDFATYYCLHHYKSPWTFGQGTKVEIKR"
